For two substances, calcium mobilization (aequorin luminescence) EC50 results are on record in patent publication US20060019338A1.

The target of assay [1] is rhesus monkey prokineticin receptor 1 (PKR1) (rhesus monkey). Briefly: cell-based or functional assay.
In assay [2] the target is squirrel monkey prokineticin receptor 2 (PKR2) (squirrel monkey). Nature of the assay: cell-based or functional assay.

Turning to “recombinant human PK2 (from UniProt Q9HC23 28-129) (ligand)”, the calcium mobilization (aequorin luminescence) EC50 in assay [1] amounted to 10 nM.
Regarding “recombinant human PK1 (from UniProt P58294 20-105) (ligand)”, the calcium mobilization (aequorin luminescence) EC50 in assay [2] was found to be 10 nM.
